Measurements taken from paper PMC9340783, “Development of a fully human anti‐GITR antibody with potent antitumor activity using H2L2 mice” (FEBS Open Bio, 2022).

Assays:
[1] = target: T1, human GITR on 293F‐hGITR cells (Homo sapiens (Human)., UniProt Q9Y5U5-1); assay: flow cytometry on cells; 293F‐hGITR or 293F‐cynoGITR cells incubated with antibodies at 4 °C for 1 h, fluorescent anti-rat/human secondary antibody; EC50 of MFI curve; settings: one partner purified
T1 construct: Also used as the target of the functional rows (Jurkat‐hGITR‐NF‐ĸB‐Luc cells made with the same lentiviral construct; endogenous GITR on human T cells)

[2] = target: T2, cynoGITR on 293F‐cynoGITR cells (Macaca fascicularis); assay: as above; settings: one partner purified
T2 construct: also called 293F‐cGITR
T2 chain: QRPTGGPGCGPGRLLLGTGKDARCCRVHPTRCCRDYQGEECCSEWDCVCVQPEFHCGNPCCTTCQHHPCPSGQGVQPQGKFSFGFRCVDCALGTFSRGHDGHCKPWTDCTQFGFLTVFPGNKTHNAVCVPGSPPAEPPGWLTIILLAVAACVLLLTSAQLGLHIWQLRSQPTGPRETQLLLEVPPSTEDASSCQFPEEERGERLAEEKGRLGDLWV

[3] = target: T3, hGITR ECD hFc (Homo sapiens (Human)., UniProt Q9Y5U5, Thr45Ala); assay: SPR; Biacore T200; hGITR ECD hFc immobilised on a Series S CM5 chip; antibody 0, 3.125, 6.25, 12.5, 25 and 50 nM; association 180 s, dissociation 600 s; settings: both partners purified
T3 construct: human GITR (glucocorticoid-induced TNF receptor-related), extracellular domain, Gln26-Glu161 with Thr45Ala, UniProt Q9Y5U5.1; also called human GITR protein; source: FreeStyle 293F, transiently transfected, purified by protein A

[4] = target: T4, human OX40 ECD hFc (Homo sapiens (Human)., UniProt P43489); assay: ELISA; indirect ELISA; antigen hFc fusion protein coated on 96-well plates (1 μg·mL^−1 overnight at 4 °C in Fig. 3B), antibody added, detected with anti-rat IgG/hIgG-peroxidase antibody; settings: both partners purified
T4 construct: human OX40, extracellular domain

[5] = target: T5, 4‐1BB ECD hFc (Homo sapiens (Human)., UniProt Q07011); assay: as above; settings: both partners purified
T5 construct: 4-1BB, extracellular domain; called a paralogue of human GITR; The legend's word 'human' stands before OX40 only; human is likely

[6] = target: T6, cynoGITR ECD hFc (Macaca fascicularis); assay: as above; settings: both partners purified
T6 construct: cynomolgus GITR, extracellular domain, Gln20-Glu155, NCBI XP_005545180.1; also called cynoGITR protein; cGITR; source: FreeStyle 293F, transiently transfected, purified by protein A
T6 chain: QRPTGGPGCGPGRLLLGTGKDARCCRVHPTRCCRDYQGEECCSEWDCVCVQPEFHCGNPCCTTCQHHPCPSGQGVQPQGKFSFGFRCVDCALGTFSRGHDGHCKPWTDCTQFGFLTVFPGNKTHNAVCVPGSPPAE

[7] = target: T3, hGITR ECD hFc; assay: as above; settings: both partners purified
[8] = target: T1, human GITR on 293F‐hGITR cells; assay: cell-based or functional assay
[9] = target: T6, cynoGITR ECD hFc; assay: ELISA; indirect ELISA; antigen hFc fusion protein coated on 96-well plates (1 μg·mL^−1 overnight at 4 °C in Fig. 3B), antibody added, detected with anti-rat IgG/hIgG-peroxidase antibody; settings: both partners purified
[10] = target: T3, hGITR ECD hFc; assay: as above; settings: both partners purified; remark: listed apart in the source

T1 sequence (Q9Y5U5 26-241): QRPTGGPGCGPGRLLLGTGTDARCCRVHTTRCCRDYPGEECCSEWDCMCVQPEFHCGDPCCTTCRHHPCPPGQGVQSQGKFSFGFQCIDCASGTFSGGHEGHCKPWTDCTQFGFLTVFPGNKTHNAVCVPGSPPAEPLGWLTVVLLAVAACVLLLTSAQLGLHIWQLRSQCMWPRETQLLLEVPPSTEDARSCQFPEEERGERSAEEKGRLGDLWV
T5 sequence (Q07011 24-186): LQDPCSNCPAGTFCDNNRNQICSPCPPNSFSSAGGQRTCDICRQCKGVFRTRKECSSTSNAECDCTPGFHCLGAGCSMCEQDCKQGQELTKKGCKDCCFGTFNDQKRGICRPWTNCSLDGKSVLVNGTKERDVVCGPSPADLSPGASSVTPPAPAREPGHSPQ
T4 sequence (P43489 29-214): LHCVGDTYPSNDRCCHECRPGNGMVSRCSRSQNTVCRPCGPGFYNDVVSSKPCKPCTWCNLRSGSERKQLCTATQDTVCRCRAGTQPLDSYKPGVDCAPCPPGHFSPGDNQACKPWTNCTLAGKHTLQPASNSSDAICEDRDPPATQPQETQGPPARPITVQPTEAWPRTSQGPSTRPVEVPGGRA

B1: hab019e2 (antibody, V domains shown)
VH: QVQLVESGGGVVQPGRSLRLSCAASGFTFSSYGMHWVRQAPGKGLEWVAVIWYAGSRKFYADSVEGRFTISRDNSKNTLYLQMNSLRAEDTAVYYCARGGSLEGGFFYYGMDVWGQGTTVTVSS
VL: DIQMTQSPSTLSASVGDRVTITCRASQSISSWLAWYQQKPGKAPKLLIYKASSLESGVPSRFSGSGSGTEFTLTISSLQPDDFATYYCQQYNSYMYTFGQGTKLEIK
notes: 3503‐hab019‐VH(EG + NLA); positions not given; as the VL of m12 (3503‐hab019‐Vk); Whole antibody, human IgG1 heavy chain constant region, human kappa light chain constant region; also called hab19e2; source: FreeStyle 293F, transiently co-transfected, purified from culture supernatant
[1]
  EC50: 0.206 nM
[2]
  EC50: 0.29 nM
[3]
  Kd: 0.384 nM
[4]
  binding result: no binding
[5]
  binding result: no binding
[6]
  EC50: 0.089 nM
[7]
  EC50: 0.093 nM
[8]
  NF‐ĸB luciferase reporter assay, Crosslinking, EC50: 7.69 nM
  NF‐ĸB luciferase reporter assay, Crosslinking, Top ratio: 13 fold
  NF‐ĸB luciferase reporter assay, No crosslinking, EC50: 0.275 nM
  NF‐ĸB luciferase reporter assay, No crosslinking, Top ratio: 8 fold

B2: Tab9H6v3 (antibody, V domains shown)
VH: QVQLVESGGGVVQPGRSLRLSCVASGFTFSSYGMHWIRQAPGKGLEWVAVIWYEGSNKYYAESVKGRFTISRDNSKNTLYLQMNSLRAEDTAVYYCARGGRLGKDYYSGMDVWGQGTTVTVSS
VL: DIQMTQSPSSLSASVGDRVTITCRASQGIRNDLGWYQQKPGKAPKRLIYATSSLQSGVPSRFSGSGSGTEFTLTISSLQPEDFATYYCLQHNTYPWTFGQGTKVEIK
notes: heavy chain variable region of clone 9H6v3 (AMGEN INC.); light chain variable region of clone 9H6v3 (AMGEN INC.)
[1]
  EC50: 0.184 nM
[2]
  EC50: 0.235 nM
[3]
  Kd: 0.135 nM
[9]
  EC50: 0.0637 nM
[10]
  EC50: 0.0709 nM
[6]
  EC50: 0.09 nM
[7]
  EC50: 0.088 nM
[8]
  NF‐ĸB luciferase reporter assay, Crosslinking, EC50: 8.86 nM
  NF‐ĸB luciferase reporter assay, Crosslinking, Top ratio: 14 fold
  NF‐ĸB luciferase reporter assay, No crosslinking, EC50: 0.787 nM
  NF‐ĸB luciferase reporter assay, No crosslinking, Top ratio: 11 fold

B3: hab070e1 (antibody, V domains shown)
VH: QVQLVESGGGVVQPGRSLRLSCAASGFTFSSYGMHWVRQAPGKGLEWVAVIWYETSNKFYVDSVKGRFTISRDNSKNTLYLQMNSLRAEDTAVYYCARYGASSGWYWYFDLWGRGTLVTVSS
VL: DIQLTQSPSFLSASVGDRVTITCRASQGISSFLAWYQQKPGKAPKLLIYAASTLQSGVPSRFSGSGSGTEFTLTISSLQPEDFATYYCQQLNSYPFTFGQGTKLEIK
notes: as the VH of m14 (3503‐hab070‐VH); 3503‐hab070‐Vk(C2Y); the substitution is against the VL of m14 (Cys in FR3 of VL); position not given; Whole antibody, human IgG1 heavy chain constant region, human kappa light chain constant region; also called hab70e1; source: FreeStyle 293F, transiently co-transfected, purified from culture supernatant
[1]
  EC50: 0.164 nM
[2]
  EC50: 0.268 nM
[3]
  Kd: 0.537 nM
[4]
  binding result: no binding
[5]
  binding result: no binding
[6]
  EC50: 0.111 nM
[7]
  EC50: 0.101 nM
[8]
  NF‐ĸB luciferase reporter assay, Crosslinking, EC50: 6.78 nM
  NF‐ĸB luciferase reporter assay, Crosslinking, Top ratio: 12 fold
  NF‐ĸB luciferase reporter assay, No crosslinking, EC50: 0.262 nM
  NF‐ĸB luciferase reporter assay, No crosslinking, Top ratio: 7 fold
